Assay [1] relates to TbpB N-lobe from M. catarrhalis 4223 (Mbp fusion truncations). The assay is described as follows: hTf C-lobe overlapping peptide library probed with HRP-labeled TbpB N-lobe truncations (chemiluminescence). It is filed as binding, Moraxella catarrhalis. Conditions: for Binding By Truncations, Segments Included 1: TbpB N-lobe segment 1; for Binding By Truncations, Segments Included 1-2: TbpB N-lobe segments 1-2. The text has this: (§1) Generation of the overlapping peptide libraries representing human transferrin or the TbpB N-lobe regions from different bacteria was by the ‘SPOTSCAN’ method (Genosys Biotechnologies) (13). Essentially the library consisted of linear peptides 15 amino acids in length that were immobilized onto a cellulose membrane using 9-flurorenylmethoxycarbonyl (Fmoc) amino acid-based synthesis. One membrane was used to generate a library of the C-lobe of hTf consisting of ninety-six 15 amino acid peptides with an 11 amino acid overlap. The overlapping hTf peptide represented amino acids 285 to 679 of the intact hTf protein (accession # NP_001054). The first peptide library representing TbpB N-lobe from M. catarrhalis 4223 (accession #AAC34277) consisted of thirty-two 15 amino acid peptides with a 4 amino acid overlap and included N-lobe amino acids 12-421. The amino acid numbers refer to the amino acids in the predicted mature, processed protein (i.e. the N-terminal cysteine is amino acid 1). The second peptide library representing M. catarrhalis 4223 TbpB N-lobe peptides included amino acids 27-421 but with an 11 amino acid overlap.
TbpB truncations were generated by PCR-based cloning into the pMal expression system (New England BioLabs) as described previously (33). Essentially, amplified tbpB gene segments were subcloned into the pMal-c2 expression vector to generate an in frame fusion with the malE gene. Intact Moraxella catarrhalis 4223 TbpB consisted of amino acids 3-680 where 1 represents the N-terminal cysteine of the mature processed protein. Amino acids 1 and 2 from the mature protein were removed to ease cloning and subsequent expression. The N-terminal half of this gene consisted of amino acids 3 to 421. The truncated TbpB proteins were expressed as maltose binding protein fusions in E. coli ER2507 or ER2508 (for segments 1 and 1-2) and purified by amylose affinity chromatography.
(§2) Two different methods for labeling proteins for library screening were used. Iron loaded human Tf (Sigma) was labeled by chemical cross-linking (using 3-maleimidobenzoic acid-N-hydroxysuccinimide ester) to a beta-galactosidase (β-gal) reporter enzyme as described elsewhere (18). This was used as a probe for calorimetric detection on the composite peptide library. The second method involved conjugating the truncations of the N-lobe of TbpB from M. catarrhalis 4223 to horseradish peroxidase (HRP). HRP conjugated proteins can be detected by chemiluminescence, providing a much more sensitive screen. The truncations were conjugated to HRP using the Linx HRP Rapid Protein Conjugation Kit (Invitrogen). These labeled fusion proteins were then used as a probe for chemiluminescent detection.
For increased sensitivity, the TbpB N-lobe truncations from M. catarrhalis were conjugated to HRP for production and detection of chemiluminescent product. The membrane was rinsed with methanol and washed with 3 changes (5 minutes each) of TBS (0.137 M NaCl, 2.68 mM KCl, 50.4 mM Tris-Base, pH=8.0) on a rocking platform. The membrane was blocked by rocking at room temperature in blocking solution consisting of 20 ml of 0.5% Skim milk powder (BioRad) in TBS for 2.5 hours. The membrane was washed with T-TBS 3 times before being incubated with one of the HRP conjugated truncations diluted 1:1000 in skim milk blocking solution for 4 hours at room temperature. The membrane was then washed again 3 times with T-TBS, drained and incubated with 10 ml of Lumiglo mixture (Kirkegaard and Perry Laboratories) for 5 minutes. It was then exposed to X-omat Blue XB-1 X-Ray film (Kodak) for at least 30 seconds before developing. Positive peptides show up as dark spots on a light background.
To plan the truncation experiments, the N-lobe of M. catarrhalis was divided into seven segments with the identified binding peptides at their junctions. […]

For another assay, the target named is T1, human transferrin (hTf) (Homo sapiens, UniProt P02787).
T1 construct: purchased Sigma
Description: First M. catarrhalis TbpB N-lobe overlapping peptide library screened with β-galactosidase conjugated hTf (colorimetric). It is filed as binding. Conditions: 15 mer peptides with 4-amino acid overlap.
Description: as §1, §2
Binding experiments of hTf to the first peptide library was by the calorimetric method (Genosys Biotechnologies). Essentially hTf in blocking solution (10% Blocking buffer (Genosys Biotechnologies), 50 mg/ml sucrose, T-TBS, (0.137 M NaCl, 2.68 mM KCl, 50.4 mM Tris-Base, 0.05% Tween-20, pH8.0) was incubated with the membrane containing the peptide library for 4 hours at room temperature. The membrane was then washed sequentially in T-TBS and PBS before detection of bound beta-galactosidase using 5-bromo-4-chloro-3-indoyl-β-D-galactopyranoside (X-gal). Positive binding was determined by the development of a blue spot.
Initially, an overlapping peptide library representing the TbpB N-lobe of M. catarrhalis was prepared and probed for binding to labeled hTf. This library was comprised of thirty-two 15 mer peptides with a 4-amino acid overlap representing amino acids 12-421 of the mature M. catarrhalis TbpB. The library was screened for binding to β-galactosidase (β-gal) conjugated hTf (β-gal-hTf ) and a number of positive-binding peptides were detected with varying intensity of colored product.

The target of assay [2] is T2, human transferrin (hTf), iron loaded (human, UniProt P02787 20-698).
T2 construct: Used as a labelled probe (beta-gal conjugate for library 1, HRP conjugate for library 2 and the solid-phase assay); also called β-gal-hTf; HRP conjugated hTf
The assay is described as follows: TbpB overlapping peptide library probed with labelled hTf as in Example 1.

For assay [3], the target named is T2, human transferrin (hTf), iron loaded. The assay is described as follows: SPOT peptide library 1 of TbpB N-lobe probed with beta-gal-hTf, colorimetric.
The next assay addresses T3, β-galactosidase alone (UniProt P00722 2-1024 = β-galactosidase).
T3 construct: Negative control probe for library 1; also called beta-galactosidase
Description: SPOT peptide library 1 probed with beta-galactosidase alone, colorimetric.

Results on 23 molecules are retold here after US20040258695A1, “Transferrin binding peptides and uses thereof” (priority 2003, published 2004).

T3 sequence (P00722 2-1024 limits assumed): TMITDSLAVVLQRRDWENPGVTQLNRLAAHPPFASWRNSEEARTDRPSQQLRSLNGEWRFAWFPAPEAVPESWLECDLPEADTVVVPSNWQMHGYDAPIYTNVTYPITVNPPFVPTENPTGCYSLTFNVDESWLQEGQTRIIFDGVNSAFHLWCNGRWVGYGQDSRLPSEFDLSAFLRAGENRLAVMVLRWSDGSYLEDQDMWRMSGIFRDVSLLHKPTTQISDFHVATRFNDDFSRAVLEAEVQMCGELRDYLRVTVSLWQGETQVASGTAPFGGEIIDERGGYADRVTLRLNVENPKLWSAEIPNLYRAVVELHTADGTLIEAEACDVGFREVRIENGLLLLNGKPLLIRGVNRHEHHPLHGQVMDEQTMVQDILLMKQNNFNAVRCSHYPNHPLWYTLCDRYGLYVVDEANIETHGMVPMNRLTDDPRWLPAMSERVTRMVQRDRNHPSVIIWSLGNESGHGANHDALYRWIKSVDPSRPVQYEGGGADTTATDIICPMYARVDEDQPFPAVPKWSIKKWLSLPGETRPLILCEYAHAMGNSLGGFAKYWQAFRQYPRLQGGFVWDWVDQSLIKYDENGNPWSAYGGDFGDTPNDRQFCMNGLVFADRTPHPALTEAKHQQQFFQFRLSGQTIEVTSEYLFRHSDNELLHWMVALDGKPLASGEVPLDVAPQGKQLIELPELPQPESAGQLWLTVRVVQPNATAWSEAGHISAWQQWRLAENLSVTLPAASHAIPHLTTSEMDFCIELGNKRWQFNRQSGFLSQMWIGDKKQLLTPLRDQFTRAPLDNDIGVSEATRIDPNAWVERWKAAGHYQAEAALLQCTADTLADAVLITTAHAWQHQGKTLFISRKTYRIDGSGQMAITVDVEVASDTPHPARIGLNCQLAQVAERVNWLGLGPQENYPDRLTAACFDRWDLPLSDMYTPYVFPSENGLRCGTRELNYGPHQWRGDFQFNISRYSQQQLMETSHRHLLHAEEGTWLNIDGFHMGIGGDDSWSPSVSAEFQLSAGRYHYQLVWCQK
T1 sequence (P02787 20-698): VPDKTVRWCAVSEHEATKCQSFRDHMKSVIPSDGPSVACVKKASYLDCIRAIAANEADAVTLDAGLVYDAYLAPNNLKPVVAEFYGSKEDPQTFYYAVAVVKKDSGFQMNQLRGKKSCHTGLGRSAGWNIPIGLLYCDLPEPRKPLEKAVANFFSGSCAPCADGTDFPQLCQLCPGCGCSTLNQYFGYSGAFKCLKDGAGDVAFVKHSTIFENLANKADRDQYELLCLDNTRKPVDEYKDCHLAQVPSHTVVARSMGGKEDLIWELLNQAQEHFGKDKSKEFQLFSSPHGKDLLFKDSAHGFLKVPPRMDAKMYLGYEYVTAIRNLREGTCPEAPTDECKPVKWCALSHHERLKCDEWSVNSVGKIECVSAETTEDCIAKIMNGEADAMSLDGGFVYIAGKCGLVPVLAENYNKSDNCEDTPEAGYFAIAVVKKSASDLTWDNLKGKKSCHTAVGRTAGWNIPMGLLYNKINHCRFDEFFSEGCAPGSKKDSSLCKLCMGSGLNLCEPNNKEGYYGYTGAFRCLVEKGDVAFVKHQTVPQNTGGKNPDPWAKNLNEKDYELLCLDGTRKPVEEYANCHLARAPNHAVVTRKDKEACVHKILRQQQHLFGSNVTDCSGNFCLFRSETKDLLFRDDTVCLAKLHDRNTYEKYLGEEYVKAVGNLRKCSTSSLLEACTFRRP
T2 sequence (P02787 20-698 limits assumed): as the sequence (P02787 20-698) above

Regarding gsnvtdcsgnfclfr [Peptide 45], in assay [1] (listed as 18 (brown)), the “Binding By Truncations, Segments Included 1” value is given as “loss of binding”.

For the molecule “mgygmalskinlhnr (MGYGMALSKINLHNR; M. catarrhalis) [Peptide 65]”, the “binding to β-gal-hTf, intensity of colored product” value (“binding to β-gal-hTf, intensity” below) with human transferrin (hTf) was “moderately positive”.

In the case of “gyygytgafrclvek (GYYGYTGAFRCLVEK; listed as Homo sapiens) [Peptide 43, hTf C-lobe library peptide, domain 2 (Red)]”, the “Binding By Truncations, Segments Included 1-2” value in assay [1] (listed as 15 (red)) is given as “lost reactivity”. Consider “fmtdvanrrnrfsev (FMTDVANRRNRFSEV; M. catarrhalis) [Peptide 83]”, for which the “binding to β-gal-hTf, intensity” value with human transferrin (hTf) is recorded as “moderately positive”. Consider chlarapnhavvtrk [Peptide 44], for which, in assay [1] (TbpB N-lobe segments 1-5, listed as 16 (yellow)), the “Binding By Truncations, Segments Included 1-5” value is on record as “lost reactivity”. In the case of “kksasdltwdnlkgk (KKSASDLTWDNLKGK; listed as Homo sapiens) [Peptide 40, hTf C-lobe library peptide, domain 2 (Green)]”, the “Binding By Truncations, Segments Included 1-3” value in assay [1] (TbpB N-lobe segments 1-3, listed as 12 (green)) was “lost reactivity”. As to “gpvggvfyngtttak (GPVGGVFYNGTTTAK; M. catarrhalis) [Peptide 80]”, the “binding to β-gal-hTf, intensity” value in the assay with human transferrin (hTf) is listed as “strongly positive”. Consider tdcsgnfclfrsetk [Peptide 46], for which the “Binding By Truncations, Segments Included 1” value in assay [1] (listed as 19 (brown)) was “loss of binding”. Regarding “agwyygasskdeynr (AGWYYGASSKDEYNR; M. catarrhalis) [Peptide 85]”, the “binding to β-gal-hTf, intensity” value in the assay with human transferrin (hTf) is recorded as “weakly positive”.

In the case of “nipmgllynkinhcr (NIPMGLLYNKINHCR; listed as Homo sapiens) [Peptide 41, hTf C-lobe library peptide, domain 2 (Blue)]”, in assay [1] (TbpB N-lobe segments 1-4, listed as 13 (Blue)), the “Binding By Truncations, Segments Included 1-4” value is on record as “lost reactivity”. For “fsnlqdrhkgnvtkt (FSNLQDRHKGNVTKT; M. catarrhalis) [Peptide 90]”, the “binding to β-gal-hTf, intensity” value with human transferrin (hTf) was “strongly positive”. Turning to “danihgnrfrgsata (DANIHGNRFRGSATA; M. catarrhalis) [Peptide 92]”, in the assay with human transferrin (hTf), the “binding to β-gal-hTf, intensity” value is listed as “strongly positive”. For the molecule “kylgeeyvkavgnlr (KYLGEEYVKAVGNLR; listed as Homo sapiens) [Peptide 47, hTf C-lobe library peptide, tail (Cyan)]”, the “Binding By Truncations, Segments Included 1-6” value in assay [1] (TbpB N-lobe segments 1-6, listed as 20 (Cyan)) is given as “bound all of the peptides except the one”. As for “lcmgsglnlcepnnk (LCMGSGLNLCEPNNK; listed as Homo sapiens) [Peptide 42, hTf C-lobe library peptide, domain 2 (Red)]”, the “Binding By Truncations, Segments Included 1-2” value in assay [1] (listed as 14 (red)) is “lost reactivity”. Turning to VIYKGVWHFVTDTKK (library peptide) [N. meningitidis TbpB peptide VIYKGVWHFVTDTKK], the binding result in assay [2] is listed as “binds”.

B1: M. catarrhalis TbpB N-lobe peptide fmtdvanrrnrfsev (peptide)
peptide: FMTDVANRRNRFSEV
notes: SPOT peptide immobilised on cellulose membrane; also called spot #83
B1: the binding result in assay [3] is given as “binds”; with β-galactosidase alone it was “no binding”.

B2: M. catarrhalis TbpB N-lobe peptide agwyygasskdeynr (peptide)
peptide: AGWYYGASSKDEYNR
notes: SPOT peptide immobilised on cellulose membrane; also called spot #85
On to B2, for which the figures for the binding result (in assay [3]; with β-galactosidase alone) were “binds” and “no binding”, respectively. PSRQLPASGKVIYKG (library peptide) [N. meningitidis TbpB peptide PSRQLPASGKVIYKG]: the binding result in assay [2] is recorded as “binds”.

B3: M. catarrhalis TbpB N-lobe peptide danihgnrfrgsata (peptide)
peptide: DANIHGNRFRGSATA
notes: SPOT peptide immobilised on cellulose membrane; also called spot #92
For B3, the binding result in assay [3] is on record as “binds”; with β-galactosidase alone it was “no binding”.

B4: M. catarrhalis TbpB N-lobe peptide gpvggvfyngtttak (peptide)
peptide: GPVGGVFYNGTTTAK
notes: SPOT peptide immobilised on cellulose membrane; also called spot #80
For B4, the results for the binding result (in assay [3]; with β-galactosidase alone) were “binds” and “no binding”, respectively.

B5: M. catarrhalis TbpB N-lobe peptide fsnlqdrhkgnvtkt (peptide)
peptide: FSNLQDRHKGNVTKT
notes: SPOT peptide immobilised on cellulose membrane; also called spot #90
As for B5, the binding result in assay [3] is listed as “binds”; with β-galactosidase alone it was “no binding”. Take FYKHAASEKDFSNKK (library peptide) [N. meningitidis TbpB peptide FYKHAASEKDFSNKK]: the binding result in assay [2] was “binds”.

B6: M. catarrhalis TbpB N-lobe peptide mgygmalskinlhnr (peptide)
peptide: MGYGMALSKINLHNR
notes: SPOT peptide immobilised on cellulose membrane; also called spot #65
For the molecule B6, the results for the binding result (in assay [3]; with β-galactosidase alone) were “binds” and “no binding”, respectively.
